Molecular target: epidermal growth factor receptor (EGFR) on A431 cells (Homo sapiens, endogenous on A431 cells, UniProt P00533)
Experiment: flow cytometry on cells

B1: Fc5^FL-ELP^DB (VHH)
VHH: EVQLQASGGGLVQAGGSLRLSCAASGFKITHYTMGWFRQAPGKEREFVSRITWGGDNTFYSNSVKGRFTISRDNAKNTVYLQMNSLKPEDTADYYCAAGSTSTATPLRVDYWGKGTQVTVSS
- binding result: no binding (tested: 1 μM)
